From patent publication US20180326084A1 (Genmab, published 2018) come the findings set out here.

Numbering of substitutions follows the chain as printed.

Experiment [1] concerns the target T1, human AXL (full length) (human, UniProt P30530 26-894).
T1 construct: also called TH1021-AXL; TH1021-hAXL
In words: flow cytometry, A431 cells, no Gas6. In general terms: In flow cytometry, cells or beads pass a laser one at a time.

For experiment [2], the target named is T1, human AXL (full length). Nature of the experiment: flow cytometry, HEK293T cells with full-length human AXL.
For the next experiment, the target named is T2, AXLECDHis (human, UniProt P30530 26-447).
T2 construct: theoretical mass 46 kDa used; also called extracellular domain (ECD) of human AXL (aa 1-447) with a C-terminal His tag; soluble recombinant AXL extracellular domain
Nature of the experiment: BLI (Octet), IgG on anti-human Fc sensor, AXLECDHis analyte. On the technique in general: BLI is a label-free optical method that tracks binding on a fibre tip over time.

The target of experiment [3] is T3, human AXL with a cynomolgus monkey extracellular domain (ECD) (cynomolgus monkey (Macaca …, UniProt P30530 26-894)).
T3 construct: Chimera on transfected HEK293T cells; also called cynomolgus AXL; cynomolgus AXL-ECD
T3 chain: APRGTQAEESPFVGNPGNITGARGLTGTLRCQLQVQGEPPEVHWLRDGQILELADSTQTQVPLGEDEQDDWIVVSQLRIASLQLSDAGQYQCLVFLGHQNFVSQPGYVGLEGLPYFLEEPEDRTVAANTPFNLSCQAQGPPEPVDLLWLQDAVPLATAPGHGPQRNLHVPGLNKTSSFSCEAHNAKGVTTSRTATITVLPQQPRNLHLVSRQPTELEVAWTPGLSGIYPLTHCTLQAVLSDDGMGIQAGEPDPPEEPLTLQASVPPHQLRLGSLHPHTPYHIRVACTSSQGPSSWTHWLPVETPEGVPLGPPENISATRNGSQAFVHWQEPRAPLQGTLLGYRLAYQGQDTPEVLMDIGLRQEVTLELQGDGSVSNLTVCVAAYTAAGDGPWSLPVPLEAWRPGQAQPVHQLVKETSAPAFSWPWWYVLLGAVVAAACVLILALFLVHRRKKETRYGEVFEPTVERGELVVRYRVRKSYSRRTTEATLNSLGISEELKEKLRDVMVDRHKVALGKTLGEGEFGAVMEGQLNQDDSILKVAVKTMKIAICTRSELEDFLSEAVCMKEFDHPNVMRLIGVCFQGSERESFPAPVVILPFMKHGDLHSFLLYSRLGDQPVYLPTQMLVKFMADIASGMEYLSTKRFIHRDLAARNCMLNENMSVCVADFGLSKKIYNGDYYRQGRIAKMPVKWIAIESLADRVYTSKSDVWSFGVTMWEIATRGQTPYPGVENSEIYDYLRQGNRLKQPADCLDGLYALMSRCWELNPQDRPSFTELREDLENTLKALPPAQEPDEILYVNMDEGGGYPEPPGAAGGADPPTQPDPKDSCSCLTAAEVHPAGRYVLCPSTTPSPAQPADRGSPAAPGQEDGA
Nature of the experiment: flow cytometry, HEK293T cells with human AXL carrying cynomolgus ECD.

The target in experiment [4] is T4, Homo sapiens AXL-Mus musculus FN1 domain (p33-AXL-mFN1) (human-mouse chimera, UniProt P30530 26-894).
T4 construct: Expressed in HEK293F cells; also called hsAXL-mmFN1; TH1021-mFN1
T4 chain: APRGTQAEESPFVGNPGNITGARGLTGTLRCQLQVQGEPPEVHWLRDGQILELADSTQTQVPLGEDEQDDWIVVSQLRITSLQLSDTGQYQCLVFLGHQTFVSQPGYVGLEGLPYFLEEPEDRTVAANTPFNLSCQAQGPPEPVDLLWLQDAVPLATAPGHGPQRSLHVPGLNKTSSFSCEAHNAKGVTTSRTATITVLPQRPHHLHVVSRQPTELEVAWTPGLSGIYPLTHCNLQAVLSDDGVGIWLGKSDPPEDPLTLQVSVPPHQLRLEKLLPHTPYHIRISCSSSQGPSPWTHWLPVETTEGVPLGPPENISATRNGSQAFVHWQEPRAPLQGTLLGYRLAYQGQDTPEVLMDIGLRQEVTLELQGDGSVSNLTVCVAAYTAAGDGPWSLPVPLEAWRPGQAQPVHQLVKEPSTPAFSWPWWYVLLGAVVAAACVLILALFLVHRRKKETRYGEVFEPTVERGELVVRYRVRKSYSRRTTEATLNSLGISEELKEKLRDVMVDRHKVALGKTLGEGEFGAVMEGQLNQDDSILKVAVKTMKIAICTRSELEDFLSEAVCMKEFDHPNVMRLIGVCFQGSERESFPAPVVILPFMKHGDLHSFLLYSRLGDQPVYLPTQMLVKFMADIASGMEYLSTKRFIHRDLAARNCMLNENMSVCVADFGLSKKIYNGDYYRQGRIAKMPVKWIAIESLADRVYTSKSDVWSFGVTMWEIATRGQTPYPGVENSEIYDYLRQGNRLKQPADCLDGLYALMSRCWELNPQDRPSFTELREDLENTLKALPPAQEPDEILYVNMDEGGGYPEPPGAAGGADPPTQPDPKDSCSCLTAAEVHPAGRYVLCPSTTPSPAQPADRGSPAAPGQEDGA
In words: flow cytometry, 1 µg/mL antibody, transfected HEK293F cells.

Experiment [5] deals with T1, human AXL (full length). Nature of the experiment: flow cytometry, A431 cells pre-incubated with 10 µg/mL Gas6 (competitor).

B1: IgG1-AXL-183 (antibody, V domains shown)
VH: QVQLQQWGAGLLKPSETLSLTCAVYGGSFSGYYWSWIRQPPGKGLEWIGEINQSGSTNYNPSLKSRVTISVDTSKNQFSLKLSSVTAADTSVYYCASGNWDHFFDYWGQGTLVTVSS
VL: DIQMTQSPSSVSASVGDRVTITCRASQGISSWLAWYQHKPGKAPKLLIYATSSLQSGVTSRFSGSGSGTDFTLTISSLQPEDFATYYCQQAKSFPWTFGQGTKVEIK
The term EC50 denotes the concentration giving half of the maximal effect. In general, Kd refers to the equilibrium constant for the complex coming apart. A word on the koff: it is a measure of how fast the partners let go of each other. By kon is commonly meant the second-order rate constant of association. Turning to B1, the EC50 amounted to 0.69 µg/mL with human AXL (full length) [1], 0.526 µg/mL with human AXL (full length) [2], 0.309 µg/mL in experiment [3] and 1.19 µg/mL in the experiment with human AXL (full length) [5]. This molecule also displayed a Kd with AXLECDHis of 10.2 nM. In the experiment with AXLECDHis, this molecule came in with a koff of 0.00042 s⁻¹. In the experiment with AXLECDHis, this molecule displayed a kon of 41000 M⁻¹ s⁻¹. In addition, the binding result in experiment [4] is recorded as “binds”. In addition, the “maximal binding in presence of Gas6 (% of binding in absence of Gas6)” value in the experiment with human AXL (full length) [5] turned out to be 90%.

B2: IgG1-AXL-148 (antibody, V domains shown)
VH: EVQLLESGGGLVQPGGSLRLSCAASGFTFSSYAMTWVRQAPGKGLEWVSAISISGGSTFYADSVKGRFTISRDNSKNTLYLQMNSLRAEDTAVYYCRGYSGYVYDAFDFWGQGTMVTVSS
VL: DIQMTQSPSSLSASVGDRVTITCRASQGISNWLAWYQQKPEKAPKSLIYAASSLQSGVPSRFSGSGSGTDFTLTISSLQPEDFATYYCQQYNSYPLTFGGGTKVEIK
With B2, the EC50 with human AXL (full length) [1] was determined as 0.11 µg/mL. In the experiment with human AXL (full length) [2], this molecule registered an EC50 of 0.094 µg/mL. In the experiment with AXLECDHis, this molecule showed a Kd of 20 nM, a koff of 0.0044 s⁻¹ and a kon of 230000 M⁻¹ s⁻¹. Besides, in experiment [3], a half-maximal response (EC50) required 0.152 µg/mL. The binding result in experiment [4] was “binds”. Moreover, in the experiment with human AXL (full length) [5], the EC50 is 0.2 µg/mL and the “maximal binding in presence of Gas6 (% of binding in absence of Gas6)” value was found to be 93%.

B3: IgG1-AXL-726 (antibody, V domains shown)
VH: QVQLQQWGAGLLKPSETLSLTCAIDGGSFSGYYWSWIRQPPGKGLEWIGEISHSGRTNYNPSLKSRVTISIDTSKNQFSLKLSSVAAADTAVYYCARFITMIRGAIITHFDYWGQGALVTVSS
VL: B2 VL with N31S, N92H, L96Y, G100Q, V104L
In the case of B3, the EC50 with human AXL (full length) [1] is 0.32 µg/mL; in the experiment with human AXL (full length) [2], 0.288 µg/mL; in experiment [3] it was 0.349 µg/mL; with human AXL (full length) [5], 0.55 µg/mL. Further, the Kd with AXLECDHis amounted to 0.6 nM. The koff in the experiment with AXLECDHis turned out to be 0.00013 s⁻¹. In the experiment with AXLECDHis, the kon was found to be 240000 M⁻¹ s⁻¹. For the same molecule, in experiment [4], the binding result is listed as “binds”. Further, the “maximal binding in presence of Gas6 (% of binding in absence of Gas6)” value with human AXL (full length) [5] came out at 97%.

B4: IgG1-AXL-733 (antibody, V domains shown)
VH: QVQLVESGGGVVQPGRSLRLSCAASGFSFSTYAMHWVRQAPGKGLEWVAVISYDGDNKYSADSVKGRFTISRDNSKNTLYLQMNSLRAEDTAVYYCARGRKLGIDAFDIWGQGTMVTVSS
VL: AIQLTQSPSSLSASVGDRVTITCRASQGISSALAWYQQKPGKAPKLLIYDASSLESGVPSRFSGSGSGTDFTLTISGLQPEDFATYYCQQFNSYPFTFGPGTKVDIK
With B4, the EC50 with human AXL (full length) [1] worked out at 0.49 µg/mL. In the experiment with human AXL (full length) [2], this molecule returned an EC50 of 0.176 µg/mL. In the experiment with AXLECDHis, this molecule displayed a Kd of 63 nM, a koff of 0.0097 s⁻¹ and a kon of 160000 M⁻¹ s⁻¹. The midpoint of the response in experiment [3], the EC50, lay at 0.254 µg/mL. In the experiment with human AXL (full length) [5], the EC50 came to 0.62 µg/mL and the “maximal binding in presence of Gas6 (% of binding in absence of Gas6)” value stood at 93%.
